One series has as its target XPA full length M2 (human, UniProt P23025 1-273, E106K;F112A). The experiment in a line: EMSA. On the technique in general: A gel shift assay detects complexes by their altered migration in electrophoresis.
Another series addresses RPA70AB (UniProt P27694 181-422). In words: NMR.
Series [1] deals with XPA globular core (XPA98-219);RPA70AB (human;human?, UniProt P23025;P27694 98-219;181-422, |). In words: NMR.
The target of series [2] is RPA70AB (RPA70 181-422), tandem ssDNA-binding domains A and B of RPA70 (human, UniProt P27694 181-422). In words: SEC-MALS. A general note: SEC sorts molecules by how far they enter the pores of the column.
Chain of RPA70AB (RPA70 181-422), tandem ssDNA-binding domains A and B of RPA70 (P27694 181-422): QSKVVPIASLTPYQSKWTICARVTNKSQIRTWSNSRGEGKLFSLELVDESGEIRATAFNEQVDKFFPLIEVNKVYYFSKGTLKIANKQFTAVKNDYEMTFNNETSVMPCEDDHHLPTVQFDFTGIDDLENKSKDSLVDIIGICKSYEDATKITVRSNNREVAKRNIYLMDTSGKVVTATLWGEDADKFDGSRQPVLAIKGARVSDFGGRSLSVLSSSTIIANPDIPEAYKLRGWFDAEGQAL

Chain of XPA full length M2 (P23025 whole entry E106K/F112A): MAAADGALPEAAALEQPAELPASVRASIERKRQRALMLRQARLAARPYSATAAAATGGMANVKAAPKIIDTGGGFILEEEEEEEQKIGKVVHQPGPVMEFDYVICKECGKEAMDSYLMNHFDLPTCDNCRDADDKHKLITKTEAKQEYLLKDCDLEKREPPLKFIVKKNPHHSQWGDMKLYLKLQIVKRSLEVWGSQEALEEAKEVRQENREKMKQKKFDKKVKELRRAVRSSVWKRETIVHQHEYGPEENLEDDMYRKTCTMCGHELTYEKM
Chain of RPA70AB (P27694 181-422): as the sequence (P27694 181-422) above
Chain of XPA globular core (XPA98-219);RPA70AB (P27694 181-422, one chain of several): as the sequence (P27694 181-422) above

B1: FAM three-way junction (EMSA) (structured_DNA)
DNA 1: GTTCGTCAGGATTCCAATTCGTGCAGGCAT
DNA 2: ATGCCTGCACGAATTAAGCCATTCGTAATCATGGT
DNA 3: ACCATGATTACGAATGGCTTGGAATCCTGACGAAC
In the case of B1, the binding result with XPA full length M2 is recorded as “binds”.

In the case of CCCCCCCC (ssDNA) [dC8], the binding result (in the series with RPA70AB; in series [1]) was “binds” in each case.

B2: XPA DNA-binding domain (XPA 98-239), wild type (domain or fragment, human, UniProt P23025 98-239, looked up)
chain: MEFDYVICEECGKEFMDSYLMNHFDLPTCDNCRDADDKHKLITKTEAKQEYLLKDCDLEKREPPLKFIVKKNPHHSQWGDMKLYLKLQIVKRSLEVWGSQEALEEAKEVRQENREKMKQKKFDKKVKELRRAVRSSVWKRET
As to B2, the binding result in series [2] was “binds”.

The values are drawn from article PMC7038936 (Nucleic Acids Research, 2020).
